We go through seven molecules from patent EP4713370A2 (dated 2026).

In assay [1] the target is T1, CD79b on target B cell lines (Ramos (CD79b+) cells; Daudi cells) (UniProt P40259 29-229, limits assumed).
T1 construct: whole, on cells; On cells CD79b stands in the B cell receptor complex with CD79a; also called Ramos (CD79+) cells; CD79b expression cells
T1 sequence (looked up): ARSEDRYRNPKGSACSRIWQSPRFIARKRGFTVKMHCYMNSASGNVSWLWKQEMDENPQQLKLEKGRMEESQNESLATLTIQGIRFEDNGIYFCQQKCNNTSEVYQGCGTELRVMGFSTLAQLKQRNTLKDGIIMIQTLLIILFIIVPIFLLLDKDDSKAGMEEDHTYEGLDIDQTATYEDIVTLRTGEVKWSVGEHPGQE
As to the kind of experiment: flow cytometry on Ramos cells, anti-human IgG Fc PE. (In general: Flow cytometry measures light scatter and fluorescence of single cells or particles in a stream.)

Assay [2] has as its target T2, human NKp46 expressed on cells (primary human NK cells; CHOK1-hNKp46 cells) (human, UniProt O76036 22-304).
T2 construct: whole, on cells; also called cell surface expressed NKp46; NCR1
Kind of assay: flow cytometry on CHOK1-hNKp46 cells, anti-human IgG Fc PE.

Assay [3] addresses T1, CD79b on target B cell lines (Ramos …). Kind of assay: flow cytometry on Ramos cells, anti-human IgG PE.
In assay [4] the target is T2, human NKp46 expressed on cells (primary …). Kind of assay: flow cytometry on purified CD56+ human NK cells, anti-human IgG PE.

T2 sequence (O76036 22-304): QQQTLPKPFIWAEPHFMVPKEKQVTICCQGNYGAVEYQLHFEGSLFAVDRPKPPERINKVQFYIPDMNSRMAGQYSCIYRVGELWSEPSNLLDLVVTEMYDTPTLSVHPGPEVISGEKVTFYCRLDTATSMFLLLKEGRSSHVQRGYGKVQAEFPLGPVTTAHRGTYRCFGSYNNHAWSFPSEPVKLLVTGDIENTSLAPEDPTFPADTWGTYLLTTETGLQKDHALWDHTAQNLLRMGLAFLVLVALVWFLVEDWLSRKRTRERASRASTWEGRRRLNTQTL

B1: h44G2/h6-1 (LC) Fc-optimized (bispecific antibody, human IgG1, kappa)
heavy: EQQLVETGGGLIQPGGSLRLSCAASGFTINIDYWISWVRQAPGKGLEWIGIIDPGDGTTYFAIWVSGRFTISFDNSKNTVYLQMNSLRAEDTAVYFCVREFSASAYQYDLWGPGTLVTVSSASTKGPSVFPLAPSSKSTSGGTAALGCLVKDYFPEPVTVSWNSGALTSGVHTFPAVLQSSGLYSLSSVVTVPSSSLGTQTYICNVNHKPSNTKVDKKVEPKSCDKTHTCPPCPAPELLAGPSVFLFPPKPKDTLMISRTPEVTCVVVDVSHEDPEVKFNWYVDGVEVHNAKTKPREEQYNSTYRVVSVLTVLHQDWLNGKEYKCKVSNKALPLPEEKTISKAKGQPREPQVYTLPPSRDELTKNQVSLTCLVKGFYPSDIAVEWESNGQPENNYKTTPPVLDSDGSFFLYSKLTVDKSRWQQGNVFSCSVMHEALHNHYTQKSLSLSPGK
light: ELVMTQSPATLSVSPGERATLSCRASEDIENYLAWYQQKPGQPPRLLIYRASTLSSGVPARFSGSGSGTEFTLTISSLQSEDFAVYYCQQGYRNSNVDNPFGGGTKVEIKRTVAAPSVFIFPPSDEQLKSGTASVVCLLNNFYPREAKVQWKVDNALQSGNSQESVTEQDSKDSTYSLSSTLTLSKADYEKHKVYACEVTHQGLSSPVTKSFNRGECGGGGSGGGGSGGGGSDVQMTQSPSTLSASVGDRVTITCQASENIYSSLAWYQQKPGKPPKLLMYDVSDLASGVPSRFSGSGSGTEFTLTISSLQPDDFATYFCLGGYPSNNYRMAFGCGTKVEIKGGGGSGGGGSGGGGSGGGGSEQQLLESGGGLVQPGGSLRLSCAASGFSFSSSAWIVWVRQAPGKCLEWIGVINTVSVNAYYASWAKGRFTISKDSSKNTVYLQMNSLRAEDTAVYFCARNPYNSLRLWGPGTLVTVSS
notes: LC format, optimized Fc; also called humanized CD79b/NKp46 bispecific antibody; humanized NK cell engager
With B1, the binding result in assay [1] and in assay [2] was “binds” in each case.

B2: h44G2/h6-1 (HC) Fc-optimized (bispecific antibody, human IgG1, kappa)
heavy: EQQLVETGGGLIQPGGSLRLSCAASGFTINIDYWISWVRQAPGKGLEWIGIIDPGDGTTYFAIWVSGRFTISFDNSKNTVYLQMNSLRAEDTAVYFCVREFSASAYQYDLWGPGTLVTVSSASTKGPSVFPLAPSSKSTSGGTAALGCLVKDYFPEPVTVSWNSGALTSGVHTFPAVLQSSGLYSLSSVVTVPSSSLGTQTYICNVNHKPSNTKVDKKVEPKSCDKTHTCPPCPAPELLAGPSVFLFPPKPKDTLMISRTPEVTCVVVDVSHEDPEVKFNWYVDGVEVHNAKTKPREEQYNSTYRVVSVLTVLHQDWLNGKEYKCKVSNKALPLPEEKTISKAKGQPREPQVYTLPPSRDELTKNQVSLTCLVKGFYPSDIAVEWESNGQPENNYKTTPPVLDSDGSFFLYSKLTVDKSRWQQGNVFSCSVMHEALHNHYTQKSLSLSPGGGGGSGGGGSGGGGSDVQMTQSPSTLSASVGDRVTITCQASENIYSSLAWYQQKPGKPPKLLMYDVSDLASGVPSRFSGSGSGTEFTLTISSLQPDDFATYFCLGGYPSNNYRMAFGCGTKVEIKGGGGSGGGGSGGGGSGGGGSEQQLLESGGGLVQPGGSLRLSCAASGFSFSSSAWIVWVRQAPGKCLEWIGVINTVSVNAYYASWAKGRFTISKDSSKNTVYLQMNSLRAEDTAVYFCARNPYNSLRLWGPGTLVTVSS
light: ELVMTQSPATLSVSPGERATLSCRASEDIENYLAWYQQKPGQPPRLLIYRASTLSSGVPARFSGSGSGTEFTLTISSLQSEDFAVYYCQQGYRNSNVDNPFGGGTKVEIKRTVAAPSVFIFPPSDEQLKSGTASVVCLLNNFYPREAKVQWKVDNALQSGNSQESVTEQDSKDSTYSLSSTLTLSKADYEKHKVYACEVTHQGLSSPVTKSFNRGEC
notes: HC format, optimized Fc; also called humanized CD79b/NKp46 bispecific antibody; humanized NK cell engager
For the molecule B2, the binding result in assay [1] and in assay [2] was “binds” throughout.

B3: ch44G2/ch6-1 (HC) Fc-optimized (bispecific antibody, human IgG1, kappa)
heavy: QSVRETGGGLVQPGGSLKLSCKASGFTINIDYWISWVRQAPGKGLEWIGIIDPGDGTTYFAIWVNGRFTISFDNTQNTVDLQMNSLTAADTATYFCVREFSASAYQYDLWGPGTLVTVSSASTKGPSVFPLAPSSKSTSGGTAALGCLVKDYFPEPVTVSWNSGALTSGVHTFPAVLQSSGLYSLSSVVTVPSSSLGTQTYICNVNHKPSNTKVDKRVEPKSCDKTHTCPPCPAPELLAGPSVFLFPPKPKDTLMISRTPEVTCVVVDVSHEDPEVKFNWYVDGVEVHNAKTKPREEQYNSTYRVVSVLTVLHQDWLNGKEYKCKVSNKALPLPEEKTISKAKGQPREPQVYTLPPSRDELTKNQVSLTCLVKGFYPSDIAVEWESNGQPENNYKTTPPVLDSDGSFFLYSKLTVDKSRWQQGNVFSCSVMHEALHNHYTQKSLSLSPGKGGGGSGGGGSGGGGSADVVMTQTPASVSEPVGGTITINCQASENIYSSLAWYQQKPGQPPKLLMYDVSDLASGVPSRFSGSGSGTEFALTISDVQPDDAATYFCLGGYPSNNYRMAFGGGTEVVVKGGGGSGGGGSGGGGSGGGGSQSLEESGGGLVQPEGSLTLTCTASGFSFSSSAWICWVRQAPGKGLEWIGCINTVSVNAYYASWAKGRFTISKTSSTTVTLQVTSLTAADTATHFCARNPYNSLRLWGPGTLVTVSS
light: DLVMTQTPSSVSAAVGGTVSINCRASEDIENYLAWYQQKPGQPPKLLIYRASTLSSGVSSRFSGSGSGTEFTLTISGVQPDDAATYYCQQGYRNSNVDNPFGGGTEMVVKRTVAAPSVFIFPPSDEQLKSGTASVVCLLNNFYPREAKVQWKVDNALQSGNSQESVTEQDSKDSTYSLSSTLTLSKADYEKHKVYACEVTHQGLSSPVTKSFNRGEC
notes: HC format: the NKp46 scFv stands at the C terminus of the heavy chain Fc, with optimized Fc; also called chimeric CD79b/NKp46 bispecific antibody; NK cell engager
As to B3, the binding result in assay [1] and in assay [2] was “binds” each time.

B4: ch44G2/ch6-1 Fc-silenced (bispecific antibody, human IgG1, kappa, L234A L235A)
heavy: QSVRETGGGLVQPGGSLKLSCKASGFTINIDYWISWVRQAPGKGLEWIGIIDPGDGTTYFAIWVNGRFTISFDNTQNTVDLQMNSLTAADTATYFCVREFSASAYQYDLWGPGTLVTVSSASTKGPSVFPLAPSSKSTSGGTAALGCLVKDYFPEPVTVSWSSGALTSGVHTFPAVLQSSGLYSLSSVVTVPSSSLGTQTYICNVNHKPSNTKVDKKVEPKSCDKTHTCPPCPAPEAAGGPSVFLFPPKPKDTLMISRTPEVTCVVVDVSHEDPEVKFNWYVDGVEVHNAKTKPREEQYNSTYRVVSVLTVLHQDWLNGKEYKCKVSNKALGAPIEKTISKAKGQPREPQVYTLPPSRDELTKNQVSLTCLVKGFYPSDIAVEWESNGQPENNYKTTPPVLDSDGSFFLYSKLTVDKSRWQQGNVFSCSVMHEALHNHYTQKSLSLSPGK
light: DLVMTQTPSSVSAAVGGTVSINCRASEDIENYLAWYQQKPGQPPKLLIYRASTLSSGVSSRFSGSGSGTEFTLTISGVQPDDAATYYCQQGYRNSNVDNPFGGGTEMVVKRTVAAPSVFIFPPSDEQLKSGTASVVCLLNNFYPREAKVQWKVDNALQSGNSQESVTEQDSKDSTYSLSSTLTLSKADYEKHKVYACEVTHQGLSSPVTKSFNRGECGGGGSGGGGSGGGGSGGGGSADVVMTQTPASVSEPVGGTITINCQASENIYSSLAWYQQKPGQPPKLLMYDVSDLASGVPSRFSGSGSGTEFALTISDVQPDDAATYFCLGGYPSNNYRMAFGGGTEVVVKGGGGSGGGGSGGGGSGGGGSQSLEESGGGLVQPEGSLTLTCTASGFSFSSSAWICWVRQAPGKGLEWIGCINTVSVNAYYASWAKGRFTISKTSSTTVTLQVTSLTAADTATHFCARNPYNSLRLWGPGTLVTVSS
notes: LC format, LALAPG silenced Fc; also called CD79b/NKp46 bispecific antibody; 44G2/6-1
Consider B4, for which the binding result in assay [3] and in assay [4] was “binds” each time.

B5: ch44G2/ch6-1 (LC) Fc-optimized (bispecific antibody, human IgG1, kappa)
heavy: QSVRETGGGLVQPGGSLKLSCKASGFTINIDYWISWVRQAPGKGLEWIGIIDPGDGTTYFAIWVNGRFTISFDNTQNTVDLQMNSLTAADTATYFCVREFSASAYQYDLWGPGTLVTVSSASTKGPSVFPLAPSSKSTSGGTAALGCLVKDYFPEPVTVSWNSGALTSGVHTFPAVLQSSGLYSLSSVVTVPSSSLGTQTYICNVNHKPSNTKVDKRVEPKSCDKTHTCPPCPAPELLAGPSVFLFPPKPKDTLMISRTPEVTCVVVDVSHEDPEVKFNWYVDGVEVHNAKTKPREEQYNSTYRVVSVLTVLHQDWLNGKEYKCKVSNKALPLPEEKTISKAKGQPREPQVYTLPPSRDELTKNQVSLTCLVKGFYPSDIAVEWESNGQPENNYKTTPPVLDSDGSFFLYSKLTVDKSRWQQGNVFSCSVMHEALHNHYTQKSLSLSPGK
light: DLVMTQTPSSVSAAVGGTVSINCRASEDIENYLAWYQQKPGQPPKLLIYRASTLSSGVSSRFSGSGSGTEFTLTISGVQPDDAATYYCQQGYRNSNVDNPFGGGTEMVVKRTVAAPSVFIFPPSDEQLKSGTASVVCLLNNFYPREAKVQWKVDNALQSGNSQESVTEQDSKDSTYSLSSTLTLSKADYEKHKVYACEVTHQGLSSPVTKSFNRGECGGGGSGGGGSGGGGSGGGGSADVVMTQTPASVSEPVGGTITINCQASENIYSSLAWYQQKPGQPPKLLMYDVSDLASGVPSRFSGSGSGTEFALTISDVQPDDAATYFCLGGYPSNNYRMAFGGGTEVVVKGGGGSGGGGSGGGGSGGGGSQSLEESGGGLVQPEGSLTLTCTASGFSFSSSAWICWVRQAPGKGLEWIGCINTVSVNAYYASWAKGRFTISKTSSTTVTLQVTSLTAADTATHFCARNPYNSLRLWGPGTLVTVSS
notes: LC format: the NKp46 scFv stands at the C terminus of the anti-CD79b light chain, with optimized Fc (G236A, A330L, I332E, EU numbering); also called chimeric CD79b/NKp46 bispecific antibody; NK cell engager
In the case of B5, the binding result in assay [1] and in assay [2] was “binds” in each case.

B6: ch44G2/ch3-7 Fc-silenced (bispecific antibody, human IgG1, kappa, L234A L235A)
heavy: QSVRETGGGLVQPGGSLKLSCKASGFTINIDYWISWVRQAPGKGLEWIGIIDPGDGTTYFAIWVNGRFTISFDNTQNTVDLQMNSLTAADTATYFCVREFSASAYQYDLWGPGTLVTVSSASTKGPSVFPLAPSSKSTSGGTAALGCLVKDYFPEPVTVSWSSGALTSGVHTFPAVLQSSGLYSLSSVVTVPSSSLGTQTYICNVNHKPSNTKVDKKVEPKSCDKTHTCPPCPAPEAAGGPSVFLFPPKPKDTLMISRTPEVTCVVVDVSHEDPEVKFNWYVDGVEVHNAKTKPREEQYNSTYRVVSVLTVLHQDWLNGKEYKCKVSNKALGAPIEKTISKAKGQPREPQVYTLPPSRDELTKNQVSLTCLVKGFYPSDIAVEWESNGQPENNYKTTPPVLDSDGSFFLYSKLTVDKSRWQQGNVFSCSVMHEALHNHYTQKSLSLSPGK
light: DLVMTQTPSSVSAAVGGTVSINCRASEDIENYLAWYQQKPGQPPKLLIYRASTLSSGVSSRFSGSGSGTEFTLTISGVQPDDAATYYCQQGYRNSNVDNPFGGGTEMVVKRTVAAPSVFIFPPSDEQLKSGTASVVCLLNNFYPREAKVQWKVDNALQSGNSQESVTEQDSKDSTYSLSSTLTLSKADYEKHKVYACEVTHQGLSSPVTKSFNRGECGGGGSGGGGSGGGGSGGGGSAFELTQTPSSVEAAVGGTVTINCQASQDIYIYLAWYQQKPGQPPKLLIYSASTLASGVSSRFTGSRSGTQFTLTISDLEPADAATYYCQSYDGTSNTGFGGGTEVVVRGGGGSGGGGSGGGGSGGGGSQSLEESGGRLVTPGTPLTLTCTVSGFSPSSYYMSWVRQAPGKGLEYIGIIFSGGSTWYASWAKGRVTISRTSTTVDLKMTSLTTEDTATYFCARGDAVGSGYWGLWGPGTLVTVSS
notes: LC format: the NKp46 scFv (VL-GS-VH) is joined to the C terminus of the anti-CD79b light chain, with LALAPG silenced Fc; also called CD79b/NKp46 bispecific antibody; 44G2/3-7
Regarding B6, the binding result in assay [3] and in assay [4] was “binds” in each case.

B7: ch44G2/ch5-13 Fc-silenced (bispecific antibody, human IgG1, kappa, L234A L235A)
heavy: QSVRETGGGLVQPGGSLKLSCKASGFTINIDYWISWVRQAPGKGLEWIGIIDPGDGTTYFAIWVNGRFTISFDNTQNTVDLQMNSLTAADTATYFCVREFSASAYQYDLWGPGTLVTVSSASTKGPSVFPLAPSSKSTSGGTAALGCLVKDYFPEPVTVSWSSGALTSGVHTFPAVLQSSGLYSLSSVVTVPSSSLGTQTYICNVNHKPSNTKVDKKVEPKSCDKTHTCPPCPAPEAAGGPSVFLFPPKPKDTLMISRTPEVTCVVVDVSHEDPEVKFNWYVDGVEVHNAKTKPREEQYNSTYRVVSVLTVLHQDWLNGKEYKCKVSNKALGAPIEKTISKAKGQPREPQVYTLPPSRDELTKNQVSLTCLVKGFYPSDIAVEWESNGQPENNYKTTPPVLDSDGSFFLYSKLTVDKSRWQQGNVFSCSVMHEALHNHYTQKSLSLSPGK
light: DLVMTQTPSSVSAAVGGTVSINCRASEDIENYLAWYQQKPGQPPKLLIYRASTLSSGVSSRFSGSGSGTEFTLTISGVQPDDAATYYCQQGYRNSNVDNPFGGGTEMVVKRTVAAPSVFIFPPSDEQLKSGTASVVCLLNNFYPREAKVQWKVDNALQSGNSQESVTEQDSKDSTYSLSSTLTLSKADYEKHKVYACEVTHQGLSSPVTKSFNRGECGGGGSGGGGSGGGGSGGGGSAYDMTQTPASVEVAVGGTVTIKCQASQSISTALAWYQQKPGQPPKLLIYKASTLASGVSSRFKGSGSGTQFTLTISGVEPADAATYYCQQGYSRSNVDNVFGGGTEVVVKGGGGSGGGGSGGGGSGGGGSQSVEESGGRLVTPGTPLTLTCTVSGFSLSSYHMSWVRQAPGKGLEWIGYILANTDSYYANWAKGRFTISKTSTTVDLKITSPTTEDTATYFCARYDNHDAAYSTLWGPGTLVTVSS
notes: LC format, LALAPG silenced Fc; also called CD79b/NKp46 bispecific antibody; 44G2/5-13
On to B7, for which the binding result in assay [3] and in assay [4] was “binds” each time.
